Measurements: article PMC9482650, “Quantitative fragmentomics allow affinity mapping of interactomes” (Nature Communications, 2022)

Assays:
Assay in all cases: holdup assay
Design in all cases: key: below the threshold = too weak to quantify, mostly under pKd 3.1 to 4
[1] = target: ARHGEF12, Q9NZN5-2
[2] = target: DLG1_2, Q12959
[3] = target: T1, DLG3_3, Q92796
T1 sequence (Q92796 374-475, limits assumed, looked up): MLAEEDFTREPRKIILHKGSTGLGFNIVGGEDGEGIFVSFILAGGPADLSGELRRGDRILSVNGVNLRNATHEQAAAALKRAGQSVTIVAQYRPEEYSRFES

[4] = target: FRMPD2_1, Q68DX3
Sequence of FRMPD2_1, Q68DX3 (Q68DX3 770-861): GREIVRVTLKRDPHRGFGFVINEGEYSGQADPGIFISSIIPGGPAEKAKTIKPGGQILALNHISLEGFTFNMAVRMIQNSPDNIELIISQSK

[5] = target: FRMPD3, Q5JV73
Sequence of FRMPD3, Q5JV73 (Q5JV73 12-100): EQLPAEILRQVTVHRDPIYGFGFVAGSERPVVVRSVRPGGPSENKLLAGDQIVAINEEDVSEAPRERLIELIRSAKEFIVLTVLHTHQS

[6] = target: GORASP1, Q9BQQ3
Sequence of GORASP1, Q9BQQ3 (Q9BQQ3 1-208): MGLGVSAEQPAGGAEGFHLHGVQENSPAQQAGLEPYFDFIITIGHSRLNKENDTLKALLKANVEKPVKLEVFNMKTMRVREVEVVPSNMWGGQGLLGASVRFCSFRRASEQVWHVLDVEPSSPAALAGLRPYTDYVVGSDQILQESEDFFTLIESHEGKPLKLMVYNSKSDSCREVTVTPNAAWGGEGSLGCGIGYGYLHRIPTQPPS

[7] = target: GRID2IP_2, A4D2P6
Sequence of GRID2IP_2, A4D2P6 (A4D2P6 272-370): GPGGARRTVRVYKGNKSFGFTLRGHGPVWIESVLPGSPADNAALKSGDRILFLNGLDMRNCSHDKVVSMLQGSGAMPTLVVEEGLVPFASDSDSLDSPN

[8] = target: T2, GRIP1_4, Q9Y3R0
T2 sequence (Q9Y3R0 467-571, limits assumed, looked up): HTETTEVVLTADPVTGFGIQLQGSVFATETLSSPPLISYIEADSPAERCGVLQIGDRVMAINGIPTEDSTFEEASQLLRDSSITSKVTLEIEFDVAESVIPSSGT

[9] = target: GRIP2_4, Q9C0E4
Sequence of GRIP2_4, Q9C0E4 (Q9C0E4 446-548): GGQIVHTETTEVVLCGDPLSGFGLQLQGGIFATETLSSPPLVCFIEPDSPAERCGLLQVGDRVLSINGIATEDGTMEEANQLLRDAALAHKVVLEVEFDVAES

[10] = target: HTRA2, O43464
Sequence of HTRA2, O43464 (O43464 355-458): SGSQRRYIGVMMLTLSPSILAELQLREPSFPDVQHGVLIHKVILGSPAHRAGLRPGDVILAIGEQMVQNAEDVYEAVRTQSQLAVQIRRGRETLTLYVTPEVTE

[11] = target: Inadl_1, Q8NI35
Sequence of Inadl_1, Q8NI35 (Q8NI35 113-229): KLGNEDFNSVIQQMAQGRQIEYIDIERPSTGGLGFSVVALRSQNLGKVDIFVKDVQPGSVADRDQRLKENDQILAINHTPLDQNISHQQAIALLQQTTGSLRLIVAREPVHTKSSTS

[12] = target: Inadl_2, Q8NI35
Sequence of Inadl_2, Q8NI35 (Q8NI35 238-335): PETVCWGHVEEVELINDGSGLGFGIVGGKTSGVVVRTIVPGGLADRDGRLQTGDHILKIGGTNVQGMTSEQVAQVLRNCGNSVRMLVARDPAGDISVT

[13] = target: Inadl_6, Q8NI35
Sequence of Inadl_6, Q8NI35 (Q8NI35 1058-1167): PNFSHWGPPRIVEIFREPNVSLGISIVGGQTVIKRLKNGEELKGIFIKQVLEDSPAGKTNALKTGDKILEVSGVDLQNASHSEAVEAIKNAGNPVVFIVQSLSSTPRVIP

[14] = target: LDB3, O75112
Sequence of LDB3, O75112 (O75112 1-94): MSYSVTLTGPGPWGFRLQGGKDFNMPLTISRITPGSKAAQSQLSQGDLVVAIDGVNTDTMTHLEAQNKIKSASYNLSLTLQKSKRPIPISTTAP

[15] = target: T3, LIN7C, Q9NUP9
T3 sequence (Q9NUP9 88-185, limits assumed, looked up): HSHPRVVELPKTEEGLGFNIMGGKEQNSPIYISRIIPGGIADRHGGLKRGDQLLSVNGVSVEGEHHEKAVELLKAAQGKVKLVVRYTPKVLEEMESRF

[16] = target: LNX1_3, Q8TBB1
Sequence of LNX1_3, Q8TBB1 (Q8TBB1 500-596): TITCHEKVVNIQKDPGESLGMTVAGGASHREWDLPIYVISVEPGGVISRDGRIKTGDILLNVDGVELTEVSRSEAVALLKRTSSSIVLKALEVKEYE

[17] = target: MAGI2_2, Q86UL8
Sequence of MAGI2_2, Q86UL8 (Q86UL8 410-522): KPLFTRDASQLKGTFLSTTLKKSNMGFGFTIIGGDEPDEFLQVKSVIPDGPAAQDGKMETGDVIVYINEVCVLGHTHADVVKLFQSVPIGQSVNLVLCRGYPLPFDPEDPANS

[18] = target: MAGI2_6, Q86UL8
Sequence of MAGI2_6, Q86UL8 (Q86UL8 1141-1229): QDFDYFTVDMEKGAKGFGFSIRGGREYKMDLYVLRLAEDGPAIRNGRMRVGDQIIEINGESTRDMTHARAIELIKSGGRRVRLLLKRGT

[19] = target: T4, MPDZ_12, O75970
T4 sequence (O75970 1857-1958, limits assumed, looked up): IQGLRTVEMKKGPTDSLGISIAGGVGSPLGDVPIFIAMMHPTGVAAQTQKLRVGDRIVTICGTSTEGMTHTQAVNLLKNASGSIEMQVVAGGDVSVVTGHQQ

[20] = target: NHERF2_2, Q15599
Sequence of NHERF2_2, Q15599 (Q15599 142-238): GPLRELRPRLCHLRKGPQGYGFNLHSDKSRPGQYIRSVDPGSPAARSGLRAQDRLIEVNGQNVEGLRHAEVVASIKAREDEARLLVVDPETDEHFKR

[21] = target: NHERF4_1, Q86UT5-2
Sequence of NHERF4_1, Q86UT5-2 (Q86UT5 other isoform, or with tags, fused parts or gaps): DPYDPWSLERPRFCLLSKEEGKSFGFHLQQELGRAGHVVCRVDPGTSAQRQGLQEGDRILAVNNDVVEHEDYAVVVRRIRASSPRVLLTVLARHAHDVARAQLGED

[22] = target: NHERF4_4, Q86UT5
Sequence of NHERF4_4, Q86UT5 (Q86UT5 464-550): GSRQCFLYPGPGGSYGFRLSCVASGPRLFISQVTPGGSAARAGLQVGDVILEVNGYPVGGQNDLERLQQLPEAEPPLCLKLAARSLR

[23] = target: T5, PARD3B_1, Q8TEW8
T5 sequence (Q8TEW8 196-299, limits assumed, looked up): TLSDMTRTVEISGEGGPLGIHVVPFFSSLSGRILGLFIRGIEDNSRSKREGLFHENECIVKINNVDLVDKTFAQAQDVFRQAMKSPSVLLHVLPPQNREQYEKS

[24] = target: PTPN3, P26045
Sequence of PTPN3, P26045 (P26045 505-587): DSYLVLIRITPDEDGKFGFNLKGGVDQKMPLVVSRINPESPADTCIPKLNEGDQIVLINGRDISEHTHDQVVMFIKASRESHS

[25] = target: T6, RHPN1, Q8TCX5
T6 sequence (Q8TCX5 508-602, limits assumed, looked up): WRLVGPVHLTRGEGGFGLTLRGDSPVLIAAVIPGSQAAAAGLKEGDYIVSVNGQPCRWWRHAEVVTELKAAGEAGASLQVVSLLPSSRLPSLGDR

[26] = target: SCRIB_3, Q14160
Sequence of SCRIB_3, Q14160 (Q14160 999-1103): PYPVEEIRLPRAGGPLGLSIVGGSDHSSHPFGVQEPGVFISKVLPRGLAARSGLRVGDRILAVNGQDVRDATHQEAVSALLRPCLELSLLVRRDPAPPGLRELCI

[27] = target: T7, SHANK1, Q9Y566
T7 sequence (Q9Y566 658-767, limits assumed, looked up): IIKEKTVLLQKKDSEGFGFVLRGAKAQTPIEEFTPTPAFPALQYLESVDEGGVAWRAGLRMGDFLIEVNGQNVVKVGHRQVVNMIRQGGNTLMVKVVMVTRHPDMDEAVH

[28] = target: T8, SIPA1L2, Q9P2F8
T8 sequence (Q9P2F8 945-1036, limits assumed, looked up): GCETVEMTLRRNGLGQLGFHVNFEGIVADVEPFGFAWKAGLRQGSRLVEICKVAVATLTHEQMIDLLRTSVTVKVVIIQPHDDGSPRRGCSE

[29] = target: SNX27, Q96L92
[30] = plain residues with an end cap or a label only (N-terminal biotin on a linker: ado-ado)
[31] = modified: phospho on T at position -2 from the C-terminal residue

Sequence of DLG1_2, Q12959 (Q12959 314-412): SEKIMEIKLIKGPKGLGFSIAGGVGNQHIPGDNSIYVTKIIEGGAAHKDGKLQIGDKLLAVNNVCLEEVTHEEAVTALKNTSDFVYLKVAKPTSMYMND
Sequence of ARHGEF12, Q9NZN5-2 (Q9NZN5 other isoform, or with tags, fused parts or gaps): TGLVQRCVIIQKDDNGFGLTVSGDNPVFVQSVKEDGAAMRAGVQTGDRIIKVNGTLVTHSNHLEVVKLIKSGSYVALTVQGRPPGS

**Q.** GQEEQVTTRL [TRPC5, Q9UL62] was tested. Which pKd [1, 30] did it give?
**A.** 4.9

**Q.** And the pKd [2, 30]?
**A.** below the threshold

**Q.** What about the pKd [3, 30] of the same binder?
**A.** below the threshold

**Q.** What about the pKd [4, 30] of the same binder?
**A.** below the threshold

**Q.** What about the pKd [5, 30] of the same binder?
**A.** below the threshold

**Q.** What about the pKd [6, 30] of the same binder?
**A.** below the threshold

**Q.** And the pKd [7, 30]?
**A.** 4.44

**Q.** What about the pKd [8, 30] of the same binder?
**A.** below the threshold

**Q.** And the pKd [9, 30]?
**A.** below the threshold

**Q.** And the pKd [10, 30]?
**A.** below the threshold

**Q.** What about the pKd [11, 30] of the same binder?
**A.** below the threshold

**Q.** And the pKd [12, 30]?
**A.** below the threshold

**Q.** What about the pKd [13, 30] of the same binder?
**A.** 3.79

**Q.** What about the pKd [14, 30] of the same binder?
**A.** below the threshold

**Q.** And the pKd [15, 30]?
**A.** below the threshold

**Q.** What about the pKd [16, 30] of the same binder?
**A.** below the threshold

**Q.** What about the pKd [17, 30] of the same binder?
**A.** below the threshold

**Q.** What about the pKd [18, 30] of the same binder?
**A.** 3.59

**Q.** And the pKd [19, 30]?
**A.** below the threshold

**Q.** What about the pKd [20, 30] of the same binder?
**A.** 4.71

**Q.** And the pKd [21, 30]?
**A.** 4.38

**Q.** And the pKd [22, 30]?
**A.** below the threshold

**Q.** What about the pKd [23, 30] of the same binder?
**A.** 4.5

**Q.** What about the pKd [24, 30] of the same binder?
**A.** 4.54

**Q.** What about the pKd [25, 30] of the same binder?
**A.** 4.85

**Q.** And the pKd [26, 30]?
**A.** 4.22

**Q.** And the pKd [27, 30]?
**A.** 5.61

**Q.** And the pKd [28, 30]?
**A.** below the threshold

**Q.** And the pKd [29, 30]?
**A.** 5.47

**Q.** What does the source list for QPCFNKLFPL [LPXN, O60711]?
**A.** pKd [1, 30]: 3.56; pKd [2, 30]: below the threshold; pKd [3, 30]: below the threshold; pKd [4, 30]: below the threshold; pKd [5, 30]: below the threshold; pKd [6, 30]: 3.68; pKd [7, 30]: below the threshold; pKd [8, 30]: below the threshold; pKd [9, 30]: below the threshold; pKd [10, 30]: 4.1; pKd [11, 30]: below the threshold; pKd [12, 30]: below the threshold; pKd [13, 30]: below the threshold; pKd [14, 30]: below the threshold; pKd [15, 30]: below the threshold; pKd [16, 30]: below the threshold; pKd [17, 30]: below the threshold; pKd [18, 30]: below the threshold; pKd [19, 30]: below the threshold; pKd [20, 30]: below the threshold; pKd [21, 30]: below the threshold; pKd [22, 30]: below the threshold; pKd [23, 30]: 3.75; pKd [24, 30]: below the threshold; pKd [25, 30]: below the threshold; pKd [26, 30]: below the threshold; pKd [27, 30]: below the threshold; pKd [28, 30]: below the threshold; pKd [29, 30]: 3.75

**Q.** Which pKd [1, 31] does the source give for RLQRRRETQV [HPV18-E6_-2P, P06463] here?
**A.** below the threshold

**Q.** And the pKd [2, 31]?
**A.** below the threshold

**Q.** And the pKd [3, 31]?
**A.** 3.52

**Q.** And the pKd [4, 31]?
**A.** below the threshold

**Q.** What about the pKd [5, 31] of the same binder?
**A.** below the threshold

**Q.** What about the pKd [6, 31] of the same binder?
**A.** below the threshold

**Q.** And the pKd [7, 31]?
**A.** below the threshold

**Q.** And the pKd [8, 31]?
**A.** below the threshold

**Q.** And the pKd [9, 31]?
**A.** below the threshold

**Q.** What about the pKd [10, 31] of the same binder?
**A.** below the threshold

**Q.** And the pKd [11, 31]?
**A.** below the threshold

**Q.** What about the pKd [12, 31] of the same binder?
**A.** below the threshold

**Q.** What about the pKd [13, 31] of the same binder?
**A.** below the threshold

**Q.** And the pKd [14, 31]?
**A.** below the threshold

**Q.** What about the pKd [15, 31] of the same binder?
**A.** 4.07

**Q.** What about the pKd [16, 31] of the same binder?
**A.** below the threshold

**Q.** What about the pKd [17, 31] of the same binder?
**A.** below the threshold

**Q.** And the pKd [18, 31]?
**A.** below the threshold

**Q.** And the pKd [19, 31]?
**A.** below the threshold

**Q.** What about the pKd [20, 31] of the same binder?
**A.** below the threshold

**Q.** What about the pKd [21, 31] of the same binder?
**A.** 3.6

**Q.** And the pKd [22, 31]?
**A.** below the threshold

**Q.** What about the pKd [23, 31] of the same binder?
**A.** below the threshold

**Q.** And the pKd [24, 31]?
**A.** below the threshold

**Q.** And the pKd [25, 31]?
**A.** below the threshold

**Q.** And the pKd [26, 31]?
**A.** below the threshold

**Q.** What about the pKd [27, 31] of the same binder?
**A.** below the threshold

**Q.** What about the pKd [28, 31] of the same binder?
**A.** below the threshold

**Q.** And the pKd [29, 31]?
**A.** 3.61

**Q.** What does the source list for PRISRSQSEL [CCDC134, Q9H6E4]?
**A.** pKd [1, 30]: 4.27; pKd [2, 30]: below the threshold; pKd [3, 30]: below the threshold; pKd [4, 30]: below the threshold; pKd [5, 30]: below the threshold; pKd [6, 30]: below the threshold; pKd [7, 30]: 3.61; pKd [8, 30]: below the threshold; pKd [9, 30]: below the threshold; pKd [10, 30]: below the threshold; pKd [11, 30]: below the threshold; pKd [12, 30]: below the threshold; pKd [13, 30]: below the threshold; pKd [14, 30]: below the threshold; pKd [15, 30]: below the threshold; pKd [16, 30]: below the threshold; pKd [17, 30]: 3.85; pKd [18, 30]: below the threshold; pKd [19, 30]: below the threshold; pKd [20, 30]: below the threshold; pKd [21, 30]: 3.86; pKd [22, 30]: below the threshold; pKd [23, 30]: below the threshold; pKd [24, 30]: 4.22; pKd [25, 30]: below the threshold; pKd [26, 30]: 4.06; pKd [27, 30]: below the threshold; pKd [28, 30]: below the threshold; pKd [29, 30]: below the threshold

**Q.** What does the source list for SSALYGESDL [ACTN2, P35609]?
**A.** pKd [1, 30]: 4.06; pKd [2, 30]: below the threshold; pKd [3, 30]: 3.6; pKd [4, 30]: below the threshold; pKd [5, 30]: below the threshold; pKd [6, 30]: below the threshold; pKd [7, 30]: below the threshold; pKd [8, 30]: below the threshold; pKd [9, 30]: below the threshold; pKd [10, 30]: below the threshold; pKd [11, 30]: below the threshold; pKd [12, 30]: below the threshold; pKd [13, 30]: below the threshold; pKd [14, 30]: 4.4; pKd [15, 30]: below the threshold; pKd [16, 30]: below the threshold; pKd [17, 30]: below the threshold; pKd [18, 30]: 5.05; pKd [19, 30]: below the threshold; pKd [20, 30]: 4.35; pKd [21, 30]: 3.88; pKd [22, 30]: below the threshold; pKd [23, 30]: below the threshold; pKd [24, 30]: 4.45; pKd [25, 30]: 3.51; pKd [26, 30]: 5.1; pKd [27, 30]: 3.91; pKd [28, 30]: below the threshold; pKd [29, 30]: 4.76
